Measured values: US20140308285A1 (Amgen, published 2014)

Columns and labels:
[1] = target: T1, cynomolgus monkey CD3 (CD3 epsilon chain) on cynomolgus monkey T cells (cynomolgus monkey (Macaca fascicularis), UniProt Q95LI5 22-198); test: cell-based or functional assay
T1 chain: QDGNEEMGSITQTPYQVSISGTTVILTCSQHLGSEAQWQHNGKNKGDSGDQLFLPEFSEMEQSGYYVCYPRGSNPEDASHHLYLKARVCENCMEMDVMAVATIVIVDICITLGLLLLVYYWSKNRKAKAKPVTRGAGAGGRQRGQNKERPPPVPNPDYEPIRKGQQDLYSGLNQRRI

[2] = target: T1, cynomolgus monkey CD3 (CD3 epsilon …); test: FACS on isolated cynomolgus monkey T cells, FITC anti-human light chain secondary antibody
Description: (§1) The heterodimeric bispecific antibodies described in Example 1 were produced in HEK 293 cells and were assayed by fluorescence activated cell sorting (FACS) for binding to T cells, which express CD3, and to a human ovarian cancer cell line, Ovcar-8, which expresses mesothelin. Briefly, the heterodimeric bispecific antibodies were incubated with about 50,000 Ovcar-8 cells or isolated human or cynomolgus monkey T cells at 4° C. for one hour. The cells were then washed and stained with a fluorescein isothiocyanate (FITC)-conjugated anti-human light chain secondary antibody and analyzed by flow cytometry. The relative binding was represented by the geometric mean of fluorescence intensity.
(§2) Another set of constructs was made by methods similar to those used above using the same pair of anti-MSLN VH and VL regions as used in most constructs described above and a different pair of anti-CD3 VH and VL regions than used in most of the constructs described above. […] These constructs were tested using the assays described above, as well as the cynomolgus monkey T cell-dependent cell cytolysis (called “cyno TDCC”) assay described below.

[3] = target: T2, human CD3 (CD3 epsilon chain) on human T cells (human, UniProt P07766 22-207); test: FACS on isolated human T cells, FITC anti-human light chain secondary antibody
T2 construct: The assay used isolated human T cells, which carry CD3 as part of the TCR-CD3 complex; also called CD3ε
T2 sequence (P07766 22-207 limits assumed): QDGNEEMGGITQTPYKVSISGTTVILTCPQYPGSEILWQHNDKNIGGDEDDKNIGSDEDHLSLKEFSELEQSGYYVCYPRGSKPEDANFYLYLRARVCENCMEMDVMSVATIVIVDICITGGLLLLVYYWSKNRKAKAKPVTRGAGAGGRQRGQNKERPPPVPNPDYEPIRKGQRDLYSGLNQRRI
Description: as §1, §2

B1: H69070.4 (bispecific antibody)
chain 1: QVQLVESGGGVVQPGRSLRLSCAASGFTFSSYGMHWVRQAPGKGLEWVAVISYPGNTKYYADSVKGRFTISRDNSKNTLYLQMNSLRAEDTAVYFCARDQKEWRLIFDYWGQGTLVTVSSASTKGPQVQLQESGPGLVKPSETLSLTCTVSGGSIISHYWSWIRQPPGKGLEWIGYIYYSGSTNYNPSLKSRVTISVDTSKNQFSLKLTSVTAADTAVYYCARDGWSAFDYWGQGTLVTVSSASTKGPSVFPLAPCSRSTSESTAALGCLVKDYFPEPVTVSWNSGALTSGVHTFPAVLQSSGLYSLSSVVTVPSSNFGTQTYTCNVDHKPSNTKVDKTVGGGGSAAAVPRDLEVVAATPTSLLISWDAPHHGVAYYRITYGETGGNSPVQEFTVPGSKSTATISGLKPGVDYTINVYAVLAYPRGYPLSKPISINYRTDYKDDDDKGSSHHHHHH
chain 2: DIQMTQSPSSVSASVGDRVTITCRASQGISSWLAWYQQKPGKAPKLLIYAASSLQSGVPSRFSGSGSGAAFTLTISSLQPEDFATYFCQQANSFPLTFAGGTKVDIKRTVAAPDIQMTQSPSSLSASVGDRVTITCRASQGIRNALGWYQQKPGKAPKRLIYAASSLQSGVPSRFSGSGSGTEFTLTISSLQPEDFATYYCLQHNSYPRTFGQGTKVEIRRTVAAPSVFIFPPSDEQLKSGTASVVCLLNNFYPREAKVQWKVDNALQSGNSQESVTEQDSKDSTYSLSSTLTLSKADYEKHKVYACEVTHQGLSSPVTKSFNRGEC
Cyno TDCC EC50 (pM), Ovcar-8 cells with cynomolgus monkey T cells [1]: 3 pM
Cyno TDCC Max killing (%), Ovcar-8 cells with cynomolgus monkey T cells [1]: 88%
FACS binding (geometric mean) [2]: 127
FACS binding (geometric mean) [3]: 9

B2: H69071.4 (bispecific antibody)
chain 1: QVQLQESGPGLVKPSQTLSLTCTVSGGSINNNNYYWTWIRQHPGKGLEWIGYIYYSGSTFYNPSLKSRVTISVDTSKTQFSLKLSSVTAADTAVYYCAREDTMTGLDVWGQGTLVTVSSGGGGSGGGGSDIQMTQSPSSVSASVGDRVTITCRASQGISSWLAWYQQKPGKAPKLLIYAASSLQSGVPSRFSGSGSGAAFTLTISSLQPEDFATYFCQQANSFPLTFAGGTKVDIKRASTKGPSVFPLAPCSRSTSESTAALGCLVKDYFPEPVTVSWNSGALTSGVHTFPAVLQSSGLYSLSSVVTVPSSNFGTQTYTCNVDHKPSNTKVDKTVGGGGSAAAVPRDLEVVAATPTSLLISWDAPHHGVAYYRITYGETGGNSPVQEFTVPGSKSTATISGLKPGVDYTINVYAVLAYPRGYPLSKPISINYRTDYKDDDDKGSSHHHHHH
chain 2: QVQLVESGGGVVQPGRSLRLSCAASGFTFSSYGMHWVRQAPGKGLEWVAVISYPGNTKYYADSVKGRFTISRDNSKNTLYLQMNSLRAEDTAVYFCARDQKEWRLIFDYWGQGTLVTVSSGGGGSGGGGSDIQMTQSPSSLSASVGDRVTITCRASQSINNYLNWYQQKPGKAPTLLIYAASSLQSGVPSRFSGSRSGTDFTLTISSLQPEDFAAYFCQQTYSNPTFGQGTKVEVKRTVAAPSVFIFPPSDEQLKSGTASVVCLLNNFYPREAKVQWKVDNALQSGNSQESVTEQDSKDSTYSLSSTLTLSKADYEKHKVYACEVTHQGLSSPVTKSFNRGEC
notes: also called H69071.2
Cyno TDCC EC50 (pM), Ovcar-8 cells with cynomolgus monkey T cells [1]: 3.2 pM
Cyno TDCC Max killing (%), Ovcar-8 cells with cynomolgus monkey T cells [1]: 88%
FACS binding (geometric mean) [2]: 121
FACS binding (geometric mean) [3]: 16
